T1: human DR4 (Death Receptor 4), cell surface expressed on human tumor cell lines (human, UniProt O00220 24-468)
T1 construct: also called TNFRSF10A; TRAIL-R1
T1 sequence: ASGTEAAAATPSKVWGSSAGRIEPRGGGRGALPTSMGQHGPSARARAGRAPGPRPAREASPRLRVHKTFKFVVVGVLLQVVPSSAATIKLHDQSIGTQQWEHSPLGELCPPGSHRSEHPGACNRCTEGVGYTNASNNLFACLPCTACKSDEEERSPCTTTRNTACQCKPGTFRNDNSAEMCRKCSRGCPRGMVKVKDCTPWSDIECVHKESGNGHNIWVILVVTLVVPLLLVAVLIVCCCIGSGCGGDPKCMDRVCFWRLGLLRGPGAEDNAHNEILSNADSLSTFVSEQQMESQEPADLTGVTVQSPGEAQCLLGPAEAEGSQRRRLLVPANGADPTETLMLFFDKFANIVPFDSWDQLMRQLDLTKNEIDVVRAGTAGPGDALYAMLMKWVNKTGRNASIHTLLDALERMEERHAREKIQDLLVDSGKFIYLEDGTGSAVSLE

T2: human FAPα (Fibroblast activation protein alpha), cell surface expressed (human, UniProt Q12884 1-760)
T2 construct: Endogenous on human lung fibroblasts and CAFs
T2 sequence: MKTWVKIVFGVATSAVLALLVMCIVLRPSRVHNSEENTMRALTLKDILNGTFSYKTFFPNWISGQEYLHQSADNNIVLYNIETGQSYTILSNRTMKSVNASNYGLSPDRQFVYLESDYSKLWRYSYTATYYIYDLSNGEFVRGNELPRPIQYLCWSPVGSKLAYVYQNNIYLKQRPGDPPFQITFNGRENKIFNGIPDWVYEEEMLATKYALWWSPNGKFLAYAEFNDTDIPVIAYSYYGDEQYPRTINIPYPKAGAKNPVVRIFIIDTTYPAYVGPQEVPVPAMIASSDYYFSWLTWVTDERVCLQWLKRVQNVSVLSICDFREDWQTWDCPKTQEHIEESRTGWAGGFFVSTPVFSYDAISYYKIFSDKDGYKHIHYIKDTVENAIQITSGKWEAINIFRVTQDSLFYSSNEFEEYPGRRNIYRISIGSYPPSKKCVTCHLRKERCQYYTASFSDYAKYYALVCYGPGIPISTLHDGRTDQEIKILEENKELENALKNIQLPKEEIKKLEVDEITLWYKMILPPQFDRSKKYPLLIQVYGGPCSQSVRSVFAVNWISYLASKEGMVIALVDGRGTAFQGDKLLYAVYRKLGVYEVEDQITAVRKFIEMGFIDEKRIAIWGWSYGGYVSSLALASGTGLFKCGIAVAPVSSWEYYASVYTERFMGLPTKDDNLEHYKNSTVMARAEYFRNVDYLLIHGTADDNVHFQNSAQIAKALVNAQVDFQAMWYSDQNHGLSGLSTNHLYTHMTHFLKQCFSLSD


Key:
[1] = biological target: T1, human DR4 (Death Receptor 4), cell …; assay: flow cytometry, HCT-116 cells, n = 1
[2] = biological target: T1, human DR4 (Death Receptor 4), cell …; assay: flow cytometry, PANC-1 cells, n = 1
[3] = biological target: T2, human FAPα (Fibroblast activation …); assay: flow cytometry, human lung fibroblasts, n = 1
Description: Binding of bispecific or monoclonal antibodies carrying the anti-FAPα arm derived from IgG1-FAPα-FERL (BisG1-FAPα-FERL/DR4-FERR, BisG1-FAPα-FERL/b12-FERR, and IgG1-FAPα-FERL) to cell surface expressed human FAPα was analyzed by flow cytometry using human lung fibroblasts and CAFs, which endogenously express FAPα. BisG1-b12-FERL/b12-FERR was used as negative control.
Human lung fibroblasts and CAFs (50,000 cells/well) were seeded in 96-Well round bottom plates (Greiner Bio-one, Cat #650101). Antibody dilutions were prepared using fluorescence-activated cell sorting (FACS) buffer, consisting of phosphate buffer saline (PBS, Lonza, Cat #BE17-517Q)+1% Bovine Serum Albumin (BSA, Roche, Cat #10735086001)+0.02% Sodium Azide (Bio-World, Cat #41920044-3). Plates were centrifuged, supernatant was removed, cells were resuspended in 50 μL of human Fc Block (BD, Cat #564220, diluted 1:100 in FACS buffer) and 50 μL of viability stain TO-PRO-3 Iodide (Thermo Fisher, Cat #T3605, diluted 1: 25,000 in FACS buffer), and incubated for 15 min at 4° C. Plates were washed three times with FACS buffer. Plates were centrifuged, supernatant was removed, cells were resuspended in 50 μL of antibody dilutions (concentration range 90-0.0005 μg/mL, three-fold dilution steps using FACS buffer) of BisG1-FAPα-FERL/DR4-FERR, BisG1-FAPα-FERL/b12-FERR, BisG1-b12-FERL/b12-FERR (top six concentrations only for CAFs culture) or IgG1-FAPα-FERL (top four concentrations only for CAFs culture) and incubated for 30 min at 4° C. Cells were washed three times with FACS buffer and resuspended in 50 μL of Fluorescein isothiocyanate (FITC)-labeled polyclonal antibody goat anti-mouse IgG1 (Jackson Immuno Research, Cat #109-096-097, diluted 1:100 in FACS buffer). […] Antibody binding to viable cells (TO-PRO-3 negative) was analyzed by flow cytometry on a FACSCelesta™ (BD biosciences) and data were processed using FlowJo_v10.8.1 (FlowJo LLC). Geomean fluorescence intensity, gMFI, was determined and visualized using GraphPad Prism.

Binder	EC50 [1]	EC50 [2]	EC50 [3]
IgG1-DR4-FERR (antibody, V domains shown, Bivalent monoclonal IgG1 lambda) VH: QVQLQESGPGLVKPSGTLSLTCAVSGGSISSYSWWSWIRQPPGKGLEWIGELYHSGSTNYNPSLKSRVTISVDKSKNQFSLKLRSVTAADTAVYYCVRGVATIDYWGQGTLVTVSS VL: QSALTQPPSASGSPGQSVTISCTGTSSDVGGYNFVSWYQQDPGKAPKLLIYEVTKRPSGVPDRFSGSKSGNTASLTVSGLQAEDEADYYCSSYAGSNNVMFGGGTKLTVLG	0.22 µg/mL	0.68 µg/mL	–
BisG1-FAPα-FERL/b12-FERR (bispecific antibody, human IgG1, kappa) heavy 1: EVQLLESGGGLVQPGGSPRLSCEASGFTFSSYALSWVRQAPGKGLEWVSAISGSGGGRYYADSVKGRFTISRDNSKNTLFLQMNSLRAEDTAVYYCAKEGYSSSGTYWDHWGQGTLVTVSSASTKGPSVFPLAPSSKSTSGGTAALGCLVKDYFPEPVTVSWNSGALTSGVHTFPAVLQSSGLYSLSSVVTVPSSSLGTQTYICNVNHKPSNTKVDKRVEPKSCDKTHTCPPCPAPEFERGPSVFLFPPKPKDTLMISRTPEVTCVVVDVSHEDPEVKFNWYVDGVEVHNAKTKPREEQYNSTYRVVSVLTVLHQDWLNGKEYKCKVSNKALPAPIEKTISKAKGQPREPQVYTLPPSREEMTKNQVSLTCLVKGFYPSDIAVEWESNGQPENNYKTTPPVLDSDGSFLLYSKLTVDKSRWQQGNVFSCSVMHEALHNHYTQKSLSLSPG light 1: AIQMTQSPSSVSASVGDRVTITCRASQGVSSWLAWYQQKPGRAPKLLIYVASTLQSGVPSRFSGSGSGTDFTLTINSLQPEDFATYYCQQANSFPPTFGQGTRLEMKRTVAAPSVFIFPPSDEQLKSGTASVVCLLNNFYPREAKVQWKVDNALQSGNSQESVTEQDSKDSTYSLSSTLTLSKADYEKHKVYACEVTHQGLSSPVTKSFNRGEC heavy 2: QVQLVQSGAEVKKPGASVKVSCQASGYRFSNFVIHWVRQAPGQRFEWMGWINPYNGNKEFSAKFQDRVTFTADTSANTAYMELRSLRSADTAVYYCARVGPYSWDDSPQDNYYMDVWGKGTTVIVSSASTKGPSVFPLAPSSKSTSGGTAALGCLVKDYFPEPVTVSWNSGALTSGVHTFPAVLQSSGLYSLSSVVTVPSSSLGTQTYICNVNHKPSNTKVDKRVEPKSCDKTHTCPPCPAPEFERGPSVFLFPPKPKDTLMISRTPEVTCVVVDVSHEDPEVKFNWYVDGVEVHNAKTKPREEQYNSTYRVVSVLTVLHQDWLNGKEYKCKVSNKALPAPIEKTISKAKGQPREPQVYTLPPSREEMTKNQVSLTCLVKGFYPSDIAVEWESNGQPENNYKTTPPVLDSDGSFFLYSRLTVDKSRWQQGNVFSCSVMHEALHNHYTQKSLSLSPG light 2: EIVLTQSPGTLSLSPGERATFSCRSSHSIRSRRVAWYQHKPGQAPRLVIHGVSNRASGISDRFSGSGSGTDFTLTITRVEPEDFALYYCQVYGASSYTFGQGTKLERKRTVAAPSVFIFPPSDEQLKSGTASVVCLLNNFYPREAKVQWKVDNALQSGNSQESVTEQDSKDSTYSLSSTLTLSKADYEKHKVYACEVTHQGLSSPVTKSFNRGEC	–	–	0.043 µg/mL
IgG1-FAPα-FERL (antibody, Bivalent monoclonal IgG1 kappa) heavy: EVQLLESGGGLVQPGGSPRLSCEASGFTFSSYALSWVRQAPGKGLEWVSAISGSGGGRYYADSVKGRFTISRDNSKNTLFLQMNSLRAEDTAVYYCAKEGYSSSGTYWDHWGQGTLVTVSSASTKGPSVFPLAPSSKSTSGGTAALGCLVKDYFPEPVTVSWNSGALTSGVHTFPAVLQSSGLYSLSSVVTVPSSSLGTQTYICNVNHKPSNTKVDKRVEPKSCDKTHTCPPCPAPEFERGPSVFLFPPKPKDTLMISRTPEVTCVVVDVSHEDPEVKFNWYVDGVEVHNAKTKPREEQYNSTYRVVSVLTVLHQDWLNGKEYKCKVSNKALPAPIEKTISKAKGQPREPQVYTLPPSREEMTKNQVSLTCLVKGFYPSDIAVEWESNGQPENNYKTTPPVLDSDGSFLLYSKLTVDKSRWQQGNVFSCSVMHEALHNHYTQKSLSLSPG light: AIQMTQSPSSVSASVGDRVTITCRASQGVSSWLAWYQQKPGRAPKLLIYVASTLQSGVPSRFSGSGSGTDFTLTINSLQPEDFATYYCQQANSFPPTFGQGTRLEMKRTVAAPSVFIFPPSDEQLKSGTASVVCLLNNFYPREAKVQWKVDNALQSGNSQESVTEQDSKDSTYSLSSTLTLSKADYEKHKVYACEVTHQGLSSPVTKSFNRGEC	–	–	0.016 µg/mL
BisG1-b12-FERL/DR4-FERR (bispecific antibody, human IgG1, kappa, lambda, Fab-arm exchange of IgG1-b12-FERL and IgG1-DR4-FERR; also called bsIgG1-ctrl-FERLxDR4-FERR) heavy 1: QVQLVQSGAEVKKPGASVKVSCQASGYRFSNFVIHWVRQAPGQRFEWMGWINPYNGNKEFSAKFQDRVTFTADTSANTAYMELRSLRSADTAVYYCARVGPYSWDDSPQDNYYMDVWGKGTTVIVSSASTKGPSVFPLAPSSKSTSGGTAALGCLVKDYFPEPVTVSWNSGALTSGVHTFPAVLQSSGLYSLSSVVTVPSSSLGTQTYICNVNHKPSNTKVDKRVEPKSCDKTHTCPPCPAPEFERGPSVFLFPPKPKDTLMISRTPEVTCVVVDVSHEDPEVKFNWYVDGVEVHNAKTKPREEQYNSTYRVVSVLTVLHQDWLNGKEYKCKVSNKALPAPIEKTISKAKGQPREPQVYTLPPSREEMTKNQVSLTCLVKGFYPSDIAVEWESNGQPENNYKTTPPVLDSDGSFLLYSKLTVDKSRWQQGNVFSCSVMHEALHNHYTQKSLSLSPG light 1: EIVLTQSPGTLSLSPGERATFSCRSSHSIRSRRVAWYQHKPGQAPRLVIHGVSNRASGISDRFSGSGSGTDFTLTITRVEPEDFALYYCQVYGASSYTFGQGTKLERKRTVAAPSVFIFPPSDEQLKSGTASVVCLLNNFYPREAKVQWKVDNALQSGNSQESVTEQDSKDSTYSLSSTLTLSKADYEKHKVYACEVTHQGLSSPVTKSFNRGEC heavy 2: QVQLQESGPGLVKPSGTLSLTCAVSGGSISSYSWWSWIRQPPGKGLEWIGELYHSGSTNYNPSLKSRVTISVDKSKNQFSLKLRSVTAADTAVYYCVRGVATIDYWGQGTLVTVSSASTKGPSVFPLAPSSKSTSGGTAALGCLVKDYFPEPVTVSWNSGALTSGVHTFPAVLQSSGLYSLSSVVTVPSSSLGTQTYICNVNHKPSNTKVDKRVEPKSCDKTHTCPPCPAPEFERGPSVFLFPPKPKDTLMISRTPEVTCVVVDVSHEDPEVKFNWYVDGVEVHNAKTKPREEQYNSTYRVVSVLTVLHQDWLNGKEYKCKVSNKALPAPIEKTISKAKGQPREPQVYTLPPSREEMTKNQVSLTCLVKGFYPSDIAVEWESNGQPENNYKTTPPVLDSDGSFFLYSRLTVDKSRWQQGNVFSCSVMHEALHNHYTQKSLSLSPG light 2: QSALTQPPSASGSPGQSVTISCTGTSSDVGGYNFVSWYQQDPGKAPKLLIYEVTKRPSGVPDRFSGSKSGNTASLTVSGLQAEDEADYYCSSYAGSNNVMFGGGTKLTVLGQPKAAPSVTLFPPSSEELQANKATLVCLISDFYPGAVTVAWKADSSPVKAGVETTTPSKQSNNKYAASSYLSLTPEQWKSHRSYSCQVTHEGSTVEKTVAPTECS	0.51 µg/mL	1.35 µg/mL	–

From patent US20250002610A1 (Genmab, published 2025)
